Results published in patent US20190367608A1 (ACTICOR BIOTECH, published 2019).

T1: double mutant GPVI-Fc (S125P, S126Q, G128R, Q133K, T136S, T171D, A172L, H174V) (human, UniProt Q9HCN6 21-269)
T1 construct: also called GPVI double mutant; not shown: human IgG1 Fc domain
T1 chain: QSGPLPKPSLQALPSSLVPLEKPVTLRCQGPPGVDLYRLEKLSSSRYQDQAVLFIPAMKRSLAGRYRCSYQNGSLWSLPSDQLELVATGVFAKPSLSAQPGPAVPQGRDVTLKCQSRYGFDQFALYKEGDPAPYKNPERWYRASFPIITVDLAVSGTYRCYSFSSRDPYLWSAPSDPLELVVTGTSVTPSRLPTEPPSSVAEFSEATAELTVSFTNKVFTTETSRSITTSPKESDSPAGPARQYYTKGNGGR

B1: wild-type soluble GPVI-Fc (Fc fusion)
chain: QSGPLPKPSLQALPSSLVPLEKPVTLRCQGPPGVDLYRLEKLSSSRYQDQAVLFIPAMKRSLAGRYRCSYQNGSLWSLPSDQLELVATGVFAKPSLSAQPGPAVSSGGDVTLQCQTRYGFDQFALYKEGDPAPYKNPERWYRASFPIITVTAAHSGTYRCYSFSSRDPYLWSAPSDPLELVVTGTSVTPSRLPTEPPSSVAEFSEATAELTVSFTNKVFTTETSRSITTSPKESDSPAGPARQYYTKGNGGR
notes: The gene encodes the ectodomain from the first methionine to asparagine 269; also called wild-type GPVI-Fc; not shown: human IgG1 Fc domain

Legend:
[1] = biological target: T1, double mutant GPVI-Fc (S125P, S126Q, …); experiment: ELISA: double mutant GPVI-Fc coated at 20 µg/mL, increasing ACT017, peroxidase-coupled anti-human IgG, absorbance at 450 nm
Description: (§1) Microtitration plates were coated with GPVI-Fc in PBS (20 μg/mL, 100 μL per well) overnight at 4° C. Nonspecific binding sites were saturated with 200 μL of 1% BSA in PBS for 30 min. The plates were then incubated with increasing concentrations of ACT017 preparations (100 μL in PBS containing 0.1% BSA and 0.1% Tween 20) for 30 min. After 3 washing rounds plates were incubated with a peroxidase-coupled secondary human anti-IgG for 30 min. Finally, 100 μL of the substrate solution were added to each well for 4 min, and the colorimetric reaction stopped by 25 μL NaOH 3 M.

[2] = biological target: B1; experiment: ELISA: GPVI-Fc coated at 20 µg/mL, increasing ACT017, peroxidase-coupled anti-human IgG, absorbance at 450 nm
Description: as §1

Collagen = biological target: T2, Collagen; experiment: ELISA: collagen coated at 20 µg/mL, increasing GPVI-Fc, peroxidase-coupled anti-human Fc, absorbance at 450 nm
T2 construct: Horm collagen (Nycomed) is named only for the platelet aggregation assays; The collagen used in the ELISA is not specified
Description: Microtitration plates were coated with Collagen in PBS (20 μg/mL, 100 μL per well) overnight at 4° C.
as §1, with “Nonspecific” for “Microtitration plates were coated with GPVI-Fc in PBS (20 μg/mL, 100 μL per well) overnight at 4° C. Nonspecific”, “wild-type or double mutant GPVI-Fc” for “ACT017”, “anti-Fc(ab)” for “anti-IgG”

Row | binding result [1] | EC50 (read off the curve) [2] | EC50 (read off the curve) (Collagen) | Binder
1 | no binding (tested: about 830 ng/ml) | ~0.03 µg/mL | – | ACT017 antibody (Fab, V domains shown, Humanized anti-human GPVI; also called the Fab of the invention) VH: QVQLVQSGAEVKKPGASVKVSCKASGYTFTSYNMHWVRQAPGQGLEWMGGIYPGNGDTSYNQKFQGRVTMTRDTSTSTVYMELSSLRSEDTAVYYCARGTVVGDWYFDVWGQGTLVTVSS VL: DIQMTQSPSSLSASVGDRVTITCRSSQSLENSNGNTYLNWYQQKPGKAPKLLIYRVSNRFSGVPSRFSGSGSGTDFTFTISSLQPEDIATYYCLQLTHVPWTFGQGTKVEITR
2 | – | – | ~0.6 µg/mL | B1
